According to patent publication US20140134155A1 (TECHNISCHE UNIVERSIT T DRESDEN, published 2014):

T1: prostate-specific stem cell antigen (PSCA) (human) (UniProt O43653)
T1 sequence (looked up): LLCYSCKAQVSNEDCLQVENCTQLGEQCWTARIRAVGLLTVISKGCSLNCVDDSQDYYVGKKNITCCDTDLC

T2: prostate-specific stem cell antigen (PSCA) (human, UniProt O43653 12-83)
T2 sequence (looked up): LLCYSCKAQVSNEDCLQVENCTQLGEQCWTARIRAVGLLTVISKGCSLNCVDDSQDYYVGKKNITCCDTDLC


Assays:
[1] = target: T1, prostate-specific stem cell antigen (PSCA) (human); assay: cell-based or functional assay
[2] = target: T2, prostate-specific stem cell antigen …; assay: cell-based or functional assay

| specific lysis of 51Cr-loaded PC3-PSCA tumor cells (chrome release test) [1] [%] | specific lysis of 51Cr-loaded PC3-PSCA tumor cells (chrome release test, effector target ratio 10:1, 20 h) [2] [%] | antibody amount giving strong lysis of PSCA-positive cells (chrome release test) [1] [ng] | Binder |
| --- | --- | --- | --- |
| 60 |  |  | murine bispecific scBsTaFv CD3-PSCA(7F5) (bispecific antibody, part only; not given: anti-CD3 scFv, linkers, tags, part only) chain, part: QVKLQESGGGLVQPGGSLKLSCVASGFTFSSYTMSWVRRTPEKRLEWVAYIHNGGGHTYYPDTIKGRFTISRDNAKNTLFLEMSSLKSEDTAMYYCTRRMYYGNSHWYFDVWGAGTSVTVSDIQMTQSPSSLSASVGDRVTITCRTSQDISNYLNWYQQKPGKAPKLLIYYTLKLNSGVPSRFSGSGSGTDFTFTISSLQPEDIATYYCQQSKTLPWTFGGGTKVEIK |
|  | > 90 |  | humanized bispecific scBsTaFv CD3-PSCA(MB1) (bispecific antibody) QVQLVQSGAEVKKPGASVKVSCKASGYTFTKYVIHWVRQAPGQGLEWMGYINPYNDVSKYNEKFRGRVTMTTDTSTSTAYMELRSLRSDDTAVYYCARNKDYYPMDYWGQGTTVTVSGGGGSGGGGSGGGGSEIVLTQSPATLSLSPGERATLSCSASSSVSYMHWYQQKPGQAPRLLIYDTSKLASGIPARFSGSGSGTDFTLTISSLEPEDFAVYYCQQWSSNPLTFGGGTKVEIKDIQMTQSPSSLSASVGDRVTITCGTSQDINNYLNWYQQKPGKVPKLLIYYTSRLHSGVPSRFSGSGSGTDFTLTISSLQPEDVATYYCQQSKTLPWTFGGGTQLTVLGGGGSGGGGSGASAAGGGGSGGGGSQVQLVESGGGLVKPGGSLRLSCAASGFTFSSYSMSWIRQAPGKGLEWVSYINDSGGSTFYPDTVKGRFTISRDNAKNSLYLQMNSLRAEDTAVYYCARRMYYGNSHWHFDVWGQGTTVTVSS |
| 80 |  | < 1 | murine bispecific scBsTaFv CD3-PSCA(MB1) (bispecific antibody, part only; not given: anti-CD3 scFv and tags, not shown: small tags and cut ends) chain, part: VQLQESGGVLVQPGGSLKLSCAASGFTFSSYSMSWIRQTPDRRLEWVAYINDSGGSTFYPDTVKGRFSISRDNAKNTLYLQISRLRSGDTAIYYCSRRMYYGNSHWHFDVWGAGTTVTVSSGGGGSGGGGSGGGGSDIVMTQSTSSLSASLGDRVTINCGTSQDINNYLNWYQQKPDGSVKLLIYYTSRLHSGVPSRFSGSGSGTDYSLTISNLEQGDIATYFCQQSKTLPWTFGGGTKLELKRADAAPTVS |
